Results: US7354588B1, “Functional derivatives of ICAM-1 with altered ability to bind LFA-1 or HRV” (Dana Farber Cancer Institute, priority 1987, dated 2008)

Assays:
RR1/1 mAb = assay: Indirect immunofluorescence flow cytofluorometry: mAb RR1/1 binding to COS cells expressing ICAM-1 mutants (SLFI, % CL203); assay type: cell-based; details: SLFI normalized to CL203 SLFI of the mutant
Method: (§1) For HRV binding studies, COS cells were reseeded in a 24 well plate. One day later, the confluent monolayer was washed twice with 1 ml of RPMI 1640/10 mM MgCl2/25 mM Hepes pH 7.3 (rhinovirus-14 buffer). Transfected COS cells were labeled with 51Cr for binding to LFA-1 coated plastic as previously described (Staunton, D. E., et al., Nature 339:61-64 (1989). Immunoprecipitation and indirect immunofluorescence was performed using ICAM-1 MAb RR1/1 (Rothlein, R., et al., J. Immunol. 137:1270-1274 (1986)), R6.5 (Rothlein, R., et al., J. Immunol. 141:1665-1669 (1988)), LB-1 (Clark, E. A., et al., Hum. Immunol. 16:100-113 (1986)) and CL203 (Maio, M., J. Immunol. 143:181-188 (1989), all of which references are incorporated herein by reference).
(§2) Binding of RR1, R6.5, and LB-2 mAb was normalized to binding of CL203 mAb using Specific Linear Fluorescence Intensity (SLFI): % CL203=(mAbSLFI)×100)/CL203mABSLFI
(§3) In Table 25, the notation for the mutations uses the one-letter code for the wild-type sequence followed by a slash and the one-letter code for the corresponding mutant sequence. The position of the first amino acid within the sequence is indicated. Wild type residues precede the slash followed by the residues they were substituted for in the mutant. COS cells expressing ICAM-1 mutants were tested for adherence to LFA-1 coated plastic and for binding 35S met-labeled HRV14. LFA-1 and HRV14 binding is normalized for percent of cells expressing mutant ICAM-1 and for binding of wild type expressing cells. Binding is presented as mean and standard error (SE) for multiple experiments (n). Effects of two-fold or greater were reproducible in LFA-1, HRV and mAb binding assays and thus considered significant (bold and underlined). The specific linear fluorescence intensity (SLFI) of CL203 for each mutant is normalized to that of wild type CL203 SLFI (% WT) as discussed above. The SLFI of RR1/1, R6.5 and LB-2 SLFI is normalized to the CL203 SLFI of the mutant (% CL203) as described above.

R6.5 mAb = assay: Indirect immunofluorescence flow cytofluorometry: mAb R6.5 binding to COS cells expressing ICAM-1 mutants (SLFI, % CL203); assay type: cell-based; details: SLFI normalized to CL203 SLFI of the mutant
Method: as §1, §2, §3

LFA-1 = target: T1, LFA-1 (Homo sapiens, UniProt P05107+P20701); assay: Adherence of COS cells expressing ICAM-1 or ICAM-1 mutants to plastic-bound purified LFA-1; assay type: cell-based; details: COS cells expressing ICAM-1 mutant adhering to LFA-1 coated plastic; normalized for percent of cells expressing mutant and for wild type binding; mean
T1 construct: endogenous in cells

LB-2 mAb = assay: Indirect immunofluorescence flow cytofluorometry: mAb LB-2 binding to COS cells expressing ICAM-1 mutants (SLFI, % CL203); assay type: cell-based; details: SLFI normalized to CL203 SLFI of the mutant
Method: as §1, §2, §3

HRV14 = assay: Binding of [^35S]-Met labeled HRV14 to COS cells expressing ICAM-1 mutants; assay type: cell-based, human rhinovirus 14; details: for HRV Binding %: 35S met-labeled HRV14 binding to COS cells expressing ICAM-1 mutant, normalized for percent of cells expressing mutant and for wild type binding, mean; for decrease in HRV14 binding: COS cells expressing the mutant, relative to wild type
CL203 mAb = assay: Indirect immunofluorescence flow cytofluorometry: mAb CL203 binding to COS cells expressing ICAM-1 mutants (SLFI, % WT); assay type: cell-based; details: SLFI of CL203 for mutant normalized to wild type CL203 SLFI; level of expression
Method: as §1, §2, §3

T1 sequence (P20701 26-1170): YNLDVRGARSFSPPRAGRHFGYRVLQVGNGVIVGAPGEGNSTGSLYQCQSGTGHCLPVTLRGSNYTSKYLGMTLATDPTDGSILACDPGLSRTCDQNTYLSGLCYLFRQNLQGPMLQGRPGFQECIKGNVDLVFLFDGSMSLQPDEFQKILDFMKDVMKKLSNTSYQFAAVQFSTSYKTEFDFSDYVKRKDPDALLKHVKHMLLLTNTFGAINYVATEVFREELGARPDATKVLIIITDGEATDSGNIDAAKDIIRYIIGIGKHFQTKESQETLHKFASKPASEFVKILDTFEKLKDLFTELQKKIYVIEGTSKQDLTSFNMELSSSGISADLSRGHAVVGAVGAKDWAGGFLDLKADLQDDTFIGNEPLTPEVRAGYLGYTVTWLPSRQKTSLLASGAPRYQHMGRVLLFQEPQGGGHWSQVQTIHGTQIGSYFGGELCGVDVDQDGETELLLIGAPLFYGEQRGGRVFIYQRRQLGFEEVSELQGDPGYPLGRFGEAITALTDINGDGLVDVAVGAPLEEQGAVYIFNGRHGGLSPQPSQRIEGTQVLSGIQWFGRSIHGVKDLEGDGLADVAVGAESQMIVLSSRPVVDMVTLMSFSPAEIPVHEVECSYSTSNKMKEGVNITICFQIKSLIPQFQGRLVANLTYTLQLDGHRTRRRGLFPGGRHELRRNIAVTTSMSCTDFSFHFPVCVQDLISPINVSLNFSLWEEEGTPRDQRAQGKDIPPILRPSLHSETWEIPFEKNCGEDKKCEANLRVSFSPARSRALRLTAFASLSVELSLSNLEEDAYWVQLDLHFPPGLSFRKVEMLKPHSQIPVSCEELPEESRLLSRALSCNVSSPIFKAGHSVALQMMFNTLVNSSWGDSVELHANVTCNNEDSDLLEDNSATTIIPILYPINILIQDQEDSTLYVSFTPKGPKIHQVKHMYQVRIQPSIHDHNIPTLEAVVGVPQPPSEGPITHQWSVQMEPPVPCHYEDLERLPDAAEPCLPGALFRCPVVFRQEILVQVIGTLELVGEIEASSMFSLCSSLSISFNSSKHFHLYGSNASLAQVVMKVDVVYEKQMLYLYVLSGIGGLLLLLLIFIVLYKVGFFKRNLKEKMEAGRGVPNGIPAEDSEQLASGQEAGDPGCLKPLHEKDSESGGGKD
T1 sequence (P05107 23-769): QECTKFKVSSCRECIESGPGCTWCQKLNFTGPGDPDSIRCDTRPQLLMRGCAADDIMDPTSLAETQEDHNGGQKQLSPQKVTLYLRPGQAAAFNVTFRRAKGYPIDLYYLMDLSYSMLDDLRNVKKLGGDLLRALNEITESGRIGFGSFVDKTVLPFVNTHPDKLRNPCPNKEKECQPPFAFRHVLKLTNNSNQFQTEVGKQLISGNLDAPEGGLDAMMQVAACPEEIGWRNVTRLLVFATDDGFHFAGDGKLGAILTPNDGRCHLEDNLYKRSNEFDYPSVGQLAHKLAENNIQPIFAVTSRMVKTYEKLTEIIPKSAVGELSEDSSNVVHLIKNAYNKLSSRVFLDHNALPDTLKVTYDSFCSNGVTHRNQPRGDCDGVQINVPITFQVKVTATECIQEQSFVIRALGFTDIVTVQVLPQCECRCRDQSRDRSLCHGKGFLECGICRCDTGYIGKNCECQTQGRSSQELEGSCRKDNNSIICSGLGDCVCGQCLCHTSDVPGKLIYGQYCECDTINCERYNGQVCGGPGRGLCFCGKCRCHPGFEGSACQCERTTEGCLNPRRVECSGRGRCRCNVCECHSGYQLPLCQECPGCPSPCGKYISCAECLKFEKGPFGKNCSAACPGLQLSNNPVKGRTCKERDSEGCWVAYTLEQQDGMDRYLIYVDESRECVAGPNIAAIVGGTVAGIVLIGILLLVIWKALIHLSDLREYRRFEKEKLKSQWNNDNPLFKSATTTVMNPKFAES

Molecule | SLFI (% CL203) RR/1 (RR1/1 mAb) [% CL203] | SLFI (% CL203) R6.5 (R6.5 mAb) [% CL203] | LFA-1 Binding % (LFA-1) [%] | SLFI (% CL203) LB-2 (LB-2 mAb) [% CL203] | HRV Binding % (HRV14) [%] | decrease in HRV14 binding (HRV14) | Cl203 % WT (SLFI) (CL203 mAb) [% WT]
Q1T/KA: ICAM-1 substitution mutant, Q1T to KA (protein, UniProt P05362 28-532, looked up, variant Q1K T2A) Intercellular adhesion …: KASVSPSKVILPRGGSVLVTCSTSCDQPKLLGIETPLPKKELLLPGNNRKVYELSNVQEDSQPMCYSNCPDGQSTAKTFLTVYWTPERVELAPLPSWQPVGKNLTLRCQVEGGAPRANLTVVLLRGEKELKREPAVGEPAEVTTTVLVRRDHHGANFSCRTELDLRPQGLELFENTSAPYQLQTFVLPATPPQLVSPRVLEVDTQGTVVCSLDGLFPVSEAQVHLALGDQRLNPTVTYGNDSFSAKASVSVTAEDEGTQRLTCAVILGNQSQETLQTVTIYSFPAPNVILTKPEVSEGTEVTVKCEAHPRAKVTLNGVPAQPLGPRAQLLLKATPEDNGRSFSCSATLEVAGQLIHKNQTRELRVLYGPRLDERDCPGNWTWPENSQQTPMCQAWGNPLPELKCLKDGTFPLPIGESVTVTRDLEGTYLCRARSTQGEVTRKVTVNVLSPRYEIVIITVVAAAVIMGTAGLSTYLYNRQRKIKKYRLQQAQKGTPMKPNTQATPP | 94 | 115 | 119 | 113 | 11 | ten-fold | 230
K39KE/ERQ: ICAM-1 substitution mutant, K39KE to ERQ (protein, UniProt P05362 28-532, looked up, variant K39E K40R E41Q) Intercellular adhesion …: QTSVSPSKVILPRGGSVLVTCSTSCDQPKLLGIETPLPERQLLLPGNNRKVYELSNVQEDSQPMCYSNCPDGQSTAKTFLTVYWTPERVELAPLPSWQPVGKNLTLRCQVEGGAPRANLTVVLLRGEKELKREPAVGEPAEVTTTVLVRRDHHGANFSCRTELDLRPQGLELFENTSAPYQLQTFVLPATPPQLVSPRVLEVDTQGTVVCSLDGLFPVSEAQVHLALGDQRLNPTVTYGNDSFSAKASVSVTAEDEGTQRLTCAVILGNQSQETLQTVTIYSFPAPNVILTKPEVSEGTEVTVKCEAHPRAKVTLNGVPAQPLGPRAQLLLKATPEDNGRSFSCSATLEVAGQLIHKNQTRELRVLYGPRLDERDCPGNWTWPENSQQTPMCQAWGNPLPELKCLKDGTFPLPIGESVTVTRDLEGTYLCRARSTQGEVTRKVTVNVLSPRYEIVIITVVAAAVIMGTAGLSTYLYNRQRKIKKYRLQQAQKGTPMKPNTQATPP | 47 | 93 | 99 | 87 | 61 | two-fold | 84
Q58EDS/AKDI (protein, UniProt P05362 28-532, looked up, variant Q58A E59K S61I) Intercellular adhesion …: QTSVSPSKVILPRGGSVLVTCSTSCDQPKLLGIETPLPKKELLLPGNNRKVYELSNVAKDIQPMCYSNCPDGQSTAKTFLTVYWTPERVELAPLPSWQPVGKNLTLRCQVEGGAPRANLTVVLLRGEKELKREPAVGEPAEVTTTVLVRRDHHGANFSCRTELDLRPQGLELFENTSAPYQLQTFVLPATPPQLVSPRVLEVDTQGTVVCSLDGLFPVSEAQVHLALGDQRLNPTVTYGNDSFSAKASVSVTAEDEGTQRLTCAVILGNQSQETLQTVTIYSFPAPNVILTKPEVSEGTEVTVKCEAHPRAKVTLNGVPAQPLGPRAQLLLKATPEDNGRSFSCSATLEVAGQLIHKNQTRELRVLYGPRLDERDCPGNWTWPENSQQTPMCQAWGNPLPELKCLKDGTFPLPIGESVTVTRDLEGTYLCRARSTQGEVTRKVTVNVLSPRYEIVIITVVAAAVIMGTAGLSTYLYNRQRKIKKYRLQQAQKGTPMKPNTQATPP | 10 | 22 | 3 | 7 | 0 | – | 98
G46NN/ASI: ICAM-1 substitution mutant, G46NN to ASI (protein, UniProt P05362 28-532, looked up, variant G46A N47S N48I) Intercellular adhesion …: QTSVSPSKVILPRGGSVLVTCSTSCDQPKLLGIETPLPKKELLLPASIRKVYELSNVQEDSQPMCYSNCPDGQSTAKTFLTVYWTPERVELAPLPSWQPVGKNLTLRCQVEGGAPRANLTVVLLRGEKELKREPAVGEPAEVTTTVLVRRDHHGANFSCRTELDLRPQGLELFENTSAPYQLQTFVLPATPPQLVSPRVLEVDTQGTVVCSLDGLFPVSEAQVHLALGDQRLNPTVTYGNDSFSAKASVSVTAEDEGTQRLTCAVILGNQSQETLQTVTIYSFPAPNVILTKPEVSEGTEVTVKCEAHPRAKVTLNGVPAQPLGPRAQLLLKATPEDNGRSFSCSATLEVAGQLIHKNQTRELRVLYGPRLDERDCPGNWTWPENSQQTPMCQAWGNPLPELKCLKDGTFPLPIGESVTVTRDLEGTYLCRARSTQGEVTRKVTVNVLSPRYEIVIITVVAAAVIMGTAGLSTYLYNRQRKIKKYRLQQAQKGTPMKPNTQATPP | 140 | 107 | 49 | 113 | 9 | ten-fold | 151
D71/N: ICAM-1 substitution mutant, D71 to N (protein, UniProt P05362 28-532, looked up, variant D71N) Intercellular adhesion …: QTSVSPSKVILPRGGSVLVTCSTSCDQPKLLGIETPLPKKELLLPGNNRKVYELSNVQEDSQPMCYSNCPNGQSTAKTFLTVYWTPERVELAPLPSWQPVGKNLTLRCQVEGGAPRANLTVVLLRGEKELKREPAVGEPAEVTTTVLVRRDHHGANFSCRTELDLRPQGLELFENTSAPYQLQTFVLPATPPQLVSPRVLEVDTQGTVVCSLDGLFPVSEAQVHLALGDQRLNPTVTYGNDSFSAKASVSVTAEDEGTQRLTCAVILGNQSQETLQTVTIYSFPAPNVILTKPEVSEGTEVTVKCEAHPRAKVTLNGVPAQPLGPRAQLLLKATPEDNGRSFSCSATLEVAGQLIHKNQTRELRVLYGPRLDERDCPGNWTWPENSQQTPMCQAWGNPLPELKCLKDGTFPLPIGESVTVTRDLEGTYLCRARSTQGEVTRKVTVNVLSPRYEIVIITVVAAAVIMGTAGLSTYLYNRQRKIKKYRLQQAQKGTPMKPNTQATPP | 44 | 94 | 79 | 83 | 62 | two-fold | 109
R49KV/EKL: ICAM-1 substitution mutant, R49KV to EKL (protein, UniProt P05362 28-532, looked up, variant R49E V51L) Intercellular adhesion …: QTSVSPSKVILPRGGSVLVTCSTSCDQPKLLGIETPLPKKELLLPGNNEKLYELSNVQEDSQPMCYSNCPDGQSTAKTFLTVYWTPERVELAPLPSWQPVGKNLTLRCQVEGGAPRANLTVVLLRGEKELKREPAVGEPAEVTTTVLVRRDHHGANFSCRTELDLRPQGLELFENTSAPYQLQTFVLPATPPQLVSPRVLEVDTQGTVVCSLDGLFPVSEAQVHLALGDQRLNPTVTYGNDSFSAKASVSVTAEDEGTQRLTCAVILGNQSQETLQTVTIYSFPAPNVILTKPEVSEGTEVTVKCEAHPRAKVTLNGVPAQPLGPRAQLLLKATPEDNGRSFSCSATLEVAGQLIHKNQTRELRVLYGPRLDERDCPGNWTWPENSQQTPMCQAWGNPLPELKCLKDGTFPLPIGESVTVTRDLEGTYLCRARSTQGEVTRKVTVNVLSPRYEIVIITVVAAAVIMGTAGLSTYLYNRQRKIKKYRLQQAQKGTPMKPNTQATPP | 103 | 97 | 123 | 52 | 49 | two-fold | 233
S3VS/AGL (protein, UniProt P05362 28-532, looked up, variant S3A V4G S5L) Intercellular adhesion …: QTAGLPSKVILPRGGSVLVTCSTSCDQPKLLGIETPLPKKELLLPGNNRKVYELSNVQEDSQPMCYSNCPDGQSTAKTFLTVYWTPERVELAPLPSWQPVGKNLTLRCQVEGGAPRANLTVVLLRGEKELKREPAVGEPAEVTTTVLVRRDHHGANFSCRTELDLRPQGLELFENTSAPYQLQTFVLPATPPQLVSPRVLEVDTQGTVVCSLDGLFPVSEAQVHLALGDQRLNPTVTYGNDSFSAKASVSVTAEDEGTQRLTCAVILGNQSQETLQTVTIYSFPAPNVILTKPEVSEGTEVTVKCEAHPRAKVTLNGVPAQPLGPRAQLLLKATPEDNGRSFSCSATLEVAGQLIHKNQTRELRVLYGPRLDERDCPGNWTWPENSQQTPMCQAWGNPLPELKCLKDGTFPLPIGESVTVTRDLEGTYLCRARSTQGEVTRKVTVNVLSPRYEIVIITVVAAAVIMGTAGLSTYLYNRQRKIKKYRLQQAQKGTPMKPNTQATPP | 5 | 31 | 18 | 9 | 61 | – | 121
